In PMC9535869, “A novel nuclear receptor subfamily enlightens the origin of heterodimerization”:

Key:
Settings in all cases: protein: recombinant; tags: His6 tag, cleaved by thrombin; chain copies: 2
[1] = target: T1, NR7 deltaA/B (called full-length NR7), homodimer (Branchiostoma lanceolatum, UniProt A0A6B9UN24 30-389); assay: SEC-nMS; Oligos annealed in 10 mM Tris-HCl pH 8.0, 100 mM NaCl, 0.1 mM EDTA; protein dimer:DNA 1:1.2; native 8% PAGE in 60 mM Tris/40 mM CAPS pH 9.4, pre-run at 4 C; SEC-nMS buffer not given in the material
T1 sequence (A0A6B9UN24 entry or part of it mutant): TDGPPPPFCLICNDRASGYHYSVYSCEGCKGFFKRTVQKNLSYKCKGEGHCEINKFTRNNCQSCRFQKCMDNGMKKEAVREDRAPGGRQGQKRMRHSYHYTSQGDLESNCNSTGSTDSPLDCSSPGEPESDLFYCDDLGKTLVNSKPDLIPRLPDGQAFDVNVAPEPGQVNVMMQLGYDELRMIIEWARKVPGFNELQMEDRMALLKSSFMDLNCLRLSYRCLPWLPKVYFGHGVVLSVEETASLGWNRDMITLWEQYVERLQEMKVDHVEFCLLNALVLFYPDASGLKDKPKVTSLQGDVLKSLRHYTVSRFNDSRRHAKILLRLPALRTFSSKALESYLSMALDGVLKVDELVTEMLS

[2] = target: T1, NR7 deltaA/B (called full-length NR7), …; assay: SEC-nMS; homodimer on DNA, 102405 Da; Oligos annealed in 10 mM Tris-HCl pH 8.0, 100 mM NaCl, 0.1 mM EDTA; protein dimer:DNA 1:1.2; native 8% PAGE in 60 mM Tris/40 mM CAPS pH 9.4, pre-run at 4 C; SEC-nMS buffer not given in the material
[3] = target: T1, NR7 deltaA/B (called full-length NR7), …; assay: SEC-nMS; NR7 and RXR mixture; Oligos annealed in 10 mM Tris-HCl pH 8.0, 100 mM NaCl, 0.1 mM EDTA; protein dimer:DNA 1:1.2; native 8% PAGE in 60 mM Tris/40 mM CAPS pH 9.4, pre-run at 4 C; SEC-nMS buffer not given in the material

Row | Binder | binding result [1] | other results
1 | DR1 (dsDNA) DNA 1: GATTTGAGGTCAGAGGTCACACAGTT DNA 2: AACTGTGTGACCTCTGACCTCAAATC | binds | 
2 | DR4 (dsDNA) DNA 1: ATTTGAGGTCACAGGAGGTCACACAG DNA 2: CTGTGTGACCTCCTGTGACCTCAAAT | binds | 
3 | DR0 (dsDNA) DNA 1: GATTTGAGGTCAAGGTCACACAGTTA DNA 2: TAACTGTGTGACCTTGACCTCAAATC |  | binding result [2]: binds
4 | IR3 (dsDNA) DNA 1: GATTTGAGGTCACAGTGACCTCACAG DNA 2: CTGTGAGGTCACTGTGACCTCAAATC |  | binding result [3]: binds
